# In article PMC10054699 (Vaccines, 2023):
# B1: polymeric F1 protein (F1 capsular antigen of Yersinia pestis) (natural protein)
# chain: ADLTASTTATATLVEPARITLTYKEGAPITIMDNGNIDTELLVGTLTLGGYKTGTTSTSVNFTDAAGDPMYLTFTSQDGNNHQFTTKVIGKDSRDFDISPKVNGENLVGDDVVLATGSQDFFVRSIGSKGGKLAAGKYTDAVTVTVSNQ
# notes: also called PolyF1; polyF1
# Target: the molecule itself
# Assay: SEC; Superdex 200 column; purified F1
protein,measurement,value
B1,binding result,binds
